Experimental data published in PMC4201290.
pKd: −log10 of the molar value.

How the values were obtained:
Experiment in all cases: fluorescence polarization
[1] = tested on: WT1 ZnF2-4 (-KTS) (Homo sapiens), P19544-4; settings: FP: 5 nM FAM-dsDNA, 300 mM NaCl (200 mM in Fig 4E), 20 mM Tris-HCl pH 7.5, 5% glycerol, 0.5 mM TCEP, 25 C, 10 min; for pKd: 300 mM NaCl
[2] = target: Egr1/Zif268 ZnF1-3 (Homo sapiens) (UniProt P18146); settings: FP: 5 nM FAM-dsDNA, 300 mM NaCl (200 mM in Fig 4E), 20 mM Tris-HCl pH 7.5, 5% glycerol, 0.5 mM TCEP, 25 C, 10 min
[3] = target: WT1 ZnF2-4 +KTS isoform (Homo sapiens) (UniProt P19544); settings: FP: 5 nM FAM-dsDNA, 300 mM NaCl (200 mM in Fig 4E), 20 mM Tris-HCl pH 7.5, 5% glycerol, 0.5 mM TCEP, 25 C, 10 min
[4] = 5fC at C9 of strand 1, 5mC at C3 of strand 1 and C3, C9 of strand 2
[5] = 5hmC at C9 of strand 1, 5mC at C3 of strand 1 and C3, C9 of strand 2
[6] = 5hmC at C3 and C9 of strand 1, 5mC at C3 and C9 of strand 2
[7] = 5mC at C3 and C9 of strand 2 only
[8] = 5mC at C3 and C9 of both strands

WT1 ZnF2-4 (-KTS) (Homo sapiens), P19544-4, sequence (P19544 other isoform, or with tags, fused parts or gaps): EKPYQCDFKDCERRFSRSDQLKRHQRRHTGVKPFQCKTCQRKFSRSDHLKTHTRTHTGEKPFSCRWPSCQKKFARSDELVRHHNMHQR
WT1 ZnF2-4 +KTS isoform (Homo sapiens), sequence (P19544 350-440): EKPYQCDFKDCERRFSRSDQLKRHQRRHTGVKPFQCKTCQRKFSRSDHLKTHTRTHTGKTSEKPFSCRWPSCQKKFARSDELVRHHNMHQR

Sequence: AGCGTGGGCGT / TACGCCCACGC [5caCx1]
- pKd ([1]; 2-fold stronger than 5mC, 5caC at C9 of strand 1, 5mC at C3 of strand 1 and C3, C9 of strand 2): 7.30
- pKd ([2]; 5caC at C9 of strand 1, 5mC at C3 of strand 1 and C3, C9 of strand 2): < 4.92

Sequence: AGCGTGGGCGT / TACGCCCACGC [5caCx2]
- pKd ([1]; ~25-fold weaker than M/M, also printed as KD > 2.3 uM, 5caC at C3 and C9 of strand 1, 5mC at C3 and C9 of strand 2): 5.64

Sequence: AGCGTGGGCGT / TACGCCCACGC [5fCx1]
- binding signal (fold weaker than 5mC (M/M)) [1, 4]: 14
- binding signal (fold weaker than 5mC (M/M)) [2, 4]: 15

Sequence: AGCGTGGGCGT / TACGCCCACGC [5fCx2]
- binding signal (fold weaker than M/M) ([1]; 5fC at C3 and C9 of strand 1, 5mC at C3 and C9 of strand 2): 75

Sequence: AGCGTGGGCGT / TACGCCCACGC [5hmCx1]
- binding signal (fold weaker than 5mC (M/M)) [1, 5]: 4.5
- binding signal (fold weaker than 5mC (M/M)) [2, 5]: 3.6

Sequence: AGCGTGGGCGT / TACGCCCACGC [5hmCx2]
- binding signal (fold weaker than M/M) [1, 6]: 75
- binding signal (fold weaker than M/M) [2, 6]: 24

Sequence: AGCGTGGGCGT / TACGCCCACGC [C/C]
- binding signal (fold weaker than -KTS isoform) ([3]; none): 24
- binding signal (fold weaker than M/M) ([1]; none): 1.8
- binding signal (fold weaker than M/M) ([2]; none): 2.8

Sequence: AGCGTGGGCGT / TACGCCCACGC [C/M]
- binding signal (fold weaker than -KTS isoform) [3, 7]: 24
- binding signal (fold weaker than M/M) [1, 7]: 1.2
- binding signal (fold weaker than M/M) [2, 7]: 2

Sequence: AGCGTGGGCGT / TACGCCCACGC [M/M]
- binding signal (fold weaker than -KTS isoform) ([3]; 300 mM NaCl, 25-fold also printed (Fig 4C), 5mC at C3 and C9 of both strands): 24
- binding signal (fold stronger than C/C) [1, 8]: 1.8
- binding signal (fold stronger than C/C) [2, 8]: 2.8
